Experimental data taken from patent US20100048468A1 (Amgen, published 2010).
Changes are numbered by the printed parent chain. Non-standard residues stand in square brackets, D forms with d. Primed or numbered codes have the meaning given here. No end group written: not given here. Aib′ = alpha aminobutyric acid (source's wording)

B1: cgGLP-24 cgGLP-27, mgGLP-22, mgGLP-33 & mgGLP-27 (SEQ ID NO: 22 + 20k PEG) (peptide)
peptide: HGEGTFTSDVSSYLE[Aib′]QAAKEFIAWLVKGRGC(mPEG‑maleimide 20 kDa)SG-NH2
B2: HGEGT FTSDV SSYLE [Aib]QAAK EFIAW LVKGR G-AMIDE (SEQ ID NO: 15) (peptide)
peptide: HGEGTFTSDVSSYLE[Aib′]QAAKEFIAWLVKGRG-NH2
B3: mgGLP19 & cgGLP- (SEQ ID NO: 21 + 20k PEG) (peptide)
peptide: HGEGTFTSDVSSYLE[Aib′]QAAKEFIAWLVKGRGC(mPEG‑maleimide 20 kDa)SG
notes: also called cgGLP-19
B4: cpGLP-25 (SEQ ID NO: 22 + 5k PEG) (peptide)
peptide: HGEGTFTSDVSSYLE[Aib′]QAAKEFIAWLVKGRGC(mPEG‑maleimide 5 kDa)SG-NH2
notes: also called cgGLP-25
B5: cgGLP-26 (SEQ ID NO: 22 + 10k PEG) (peptide)
peptide: HGEGTFTSDVSSYLE[Aib′]QAAKEFIAWLVKGRGC(mPEG‑maleimide 10 kDa)SG-NH2
B6: mgGLP32 & mgGLP-20 (SEQ ID NO: 18 + 20k PEG) (peptide)
peptide: HGEGTFTSDVSSYLE[Aib′]QAAKEFIAWLVKGRGC(mPEG‑maleimide 20 kDa)A-NH2
notes: also called cgGLP30
B7: mgGLP-16 (SEQ ID NO: 20 + 20k PEG) (peptide)
peptide: HGEGTFTSDVSSYLE[Aib′]QAAKEFIAWLVKGRGC(mPEG‑maleimide 20 kDa)G-NH2
B8: cgGLP-13 (SEQ ID NO: 8 + 20k PEG monomer) (peptide)
peptide: HGEGTFTSDVSSYLEGC(PEG 20 kDa)AAKEFIAWLKNGGPSSGAPPPS
B9: MHH-GLP1 (SEQ ID NO: 258) (peptide)
peptide: MHHHAEGTFTSDVSSYLEGQAAKEFIAWLVKGR
modifications: ends and bridges not checked
notes: Not pegylated
B10: MQ-GLP1 (SEQ ID NO: 253) (peptide)
peptide: MQHAEGTFTSDVSSYLEGQAAKEFIAWLVKGR
modifications: ends and bridges not checked
notes: Not pegylated
B11: MN-GLP1 (SEQ ID NO: 263) (peptide)
peptide: B10 peptide with Q2N
modifications: ends and bridges not checked
notes: Not pegylated
B12: MY-GLP1 (SEQ ID NO: 259) (peptide)
peptide: B10 peptide with Q2Y
modifications: ends and bridges not checked
notes: Not pegylated
B13: MH-GLP1 (SEQ ID NO: 257) (peptide)
peptide: B10 peptide with Q2H
modifications: ends and bridges not checked
notes: Not pegylated
B14: MF-GLP1 (SEQ ID NO: 266) (peptide)
peptide: B10 peptide with Q2F
modifications: ends and bridges not checked
notes: Not pegylated
B15: ML-GLP1 (SEQ ID NO: 262) (peptide)
peptide: B10 peptide with Q2L
modifications: ends and bridges not checked
notes: Not pegylated
B16: ME-GLP1 (SEQ ID NO: 264) (peptide)
peptide: B10 peptide with Q2E
notes: Not pegylated
B17: MM-GLP1 (SEQ ID NO: 267) (peptide)
peptide: B10 peptide with Q2M
modifications: not fully specified; ends and bridges not checked
notes: Not pegylated
B18: MW-GLP1 (SEQ ID NO: 265) (peptide)
peptide: B10 peptide with Q2W
modifications: ends and bridges not checked
notes: Not pegylated
B19: MR-GLP1 (SEQ ID NO: 254) (peptide)
peptide: B10 peptide with Q2R
modifications: ends and bridges not checked
notes: Not pegylated
B20: MI-GLP1 (SEQ ID NO: 260) (peptide)
peptide: B10 peptide with Q2I
modifications: not fully specified; ends and bridges not checked
notes: Not pegylated
B21: MD-GLP1 (SEQ ID NO: 261) (peptide)
peptide: B10 peptide with Q2D
notes: Not pegylated
B22: MK-GLP1 (SEQ ID NO: 255) (peptide)
peptide: B10 peptide with Q2K
modifications: not fully specified; ends and bridges not checked
notes: Not pegylated
B23: A-GLP-1 (SEQ ID NO: 247) (peptide)
peptide: AHAEGTFTSDVSSYLEGQAAKEFIAWLVKGR
notes: Not pegylated
B24: V-GLP-1 (SEQ ID NO: 252) (peptide)
peptide: B23 peptide with A1V
modifications: ends and bridges not checked
notes: Not pegylated
B25: S-GLP-1 (SEQ ID NO: 250) (peptide)
peptide: B23 peptide with A1S
modifications: ends and bridges not checked
notes: Not pegylated; also called S-CLP-1
B26: P-GLP-1 (SEQ ID NO: 249) (peptide)
peptide: B23 peptide with A1P
modifications: ends and bridges not checked
notes: Not pegylated; also called P-CLP-1
B27: G-GLP-1 (SEQ ID NO: 248) (peptide)
peptide: B23 peptide with A1G
modifications: not fully specified
notes: Not pegylated
B28: T-GLP-1 (SEQ ID NO: 251) (peptide)
peptide: B23 peptide with A1T
modifications: not fully specified; ends and bridges not checked
notes: Not pegylated
B29: M-GLP1 (SEQ ID NO: 256) (peptide)
peptide: B23 peptide with A1M
notes: Not pegylated

molecular target: T1, human GLP-1 receptor (human, UniProt P43220 24-463); assay: 125I-GLP-1 displacement, membranes of CHOK1 cells expressing human GLP-1 receptor
T1 construct: whole, on cells
Protocol: (§1) Membrane Preparation. […] Cells were sedimented at 1500 rpm for 10 minutes. The resulting pellets were homogenized in 15 mls of ice cold sucrose buffer (25 mM Tris-HCl, 0.32 M Sucrose, 0.25 g/L, sodium azide, pH 7.4) with a motorized, glass fitted, Teflon homogenizer. The homogenate was centrifuged at 48,000×g at 4° C. for 10 minutes, resuspended in 25 ml assay buffer (50 mM Tris-HCl, 5 mM MgCl₂, 10 mg/ml protease-free BSA, 0.1 mg/ml STI, and 0.1 mg/ml Pefabloc, pH 7.4) with a Tissue-Tearor (Biospec Products), then centrifuged again at 48,000×g for 10 minutes. The pellets were homogenized for a third time in 15 ml assay buffer using the Tissue-Tearor and again centrifuged at 48,000×g for 10 minutes. The resulting pellet was resuspended in assay buffer at a wet weight concentration of 4 mg/ml.
Ligand Binding Assay. Binding assays were performed in 96-well U-bottom plates. […] The reaction was terminated by rapid filtration through Unfilter-96 GF/C glass fiber filter plates (FilterMate 196 Packard Harvester, PerkinElmer, Shelton, Conn.) pre-soaked in 0.5% polyethylenimine, followed by three washes with 300 μl of cold 50 mM Tris-HCl, pH 7.4. Bound radioactivity was determined using a TopCount microplate scintillation and luminescence counter (Packard Instrument Company, PerkinElmer, Shelton, Conn.). Nonlinear regression analyses of resulting concentration curves were performed using GraphPad Prism (GraphPad Software, Inc., San Diego, Calif.). […]

Binder | IC50 [nM]
B1 | 47
B2 | 3.5
B3 | 230
B4 | 15
B5 | 23
B6 | 56
B7 | 50

molecular target: T2, mouse GLP-1 receptor (mouse, UniProt O35659 22-463); assay: cell-based or functional assay
T2 sequence (looked up): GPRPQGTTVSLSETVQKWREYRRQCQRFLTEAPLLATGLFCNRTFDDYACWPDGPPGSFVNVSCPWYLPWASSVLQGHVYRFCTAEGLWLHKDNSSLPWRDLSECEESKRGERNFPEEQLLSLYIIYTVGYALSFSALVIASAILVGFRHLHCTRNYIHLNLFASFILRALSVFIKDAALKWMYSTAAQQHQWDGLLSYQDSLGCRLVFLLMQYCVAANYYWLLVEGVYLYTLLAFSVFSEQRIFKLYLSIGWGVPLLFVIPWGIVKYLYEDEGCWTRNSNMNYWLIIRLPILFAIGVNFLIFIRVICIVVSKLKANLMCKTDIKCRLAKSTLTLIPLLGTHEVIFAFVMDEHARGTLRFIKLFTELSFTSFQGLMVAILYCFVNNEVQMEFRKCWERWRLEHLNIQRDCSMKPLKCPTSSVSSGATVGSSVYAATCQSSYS

Binder | EC50 mouse [nM]
B8 | 3

molecular target: T1, human GLP-1 receptor; assay: cell-based or functional assay

Binder | EC50 human [nM]
B9 | 1
B10 | 0.5
B11 | 0.3
B12 | 0.4
B13 | 2
B14 | 1
B15 | 0.7
B16 | 1
B17 | 0.5
B18 | 0.8
B19 | 8
B20 | 0.6
B21 | 0.3
B22 | 4
B23 | 0.2
B24 | 0.2
B25 | 0.4
B26 | 0.2
B27 | 1
B28 | 0.3
B29 | 0.086

molecular target: T2, mouse GLP-1 receptor; assay: cell-based or functional assay; remark: another data set of the same source

Binder | EC50 mouse [nM]
B9 | 5
B10 | 3
B11 | 2
B12 | 1
B13 | 11
B14 | 6
B15 | 6
B16 | 4
B17 | 3
B18 | 5
B19 | 41
B20 | 6
B21 | 2
B22 | 12
B23 | 0.8
B24 | 1
B25 | 2
B26 | 1
B27 | 3
B28 | 2
B29 | 0.5

molecular target: T1, human GLP-1 receptor; assay: cell-based or functional assay; remark: another data set of the same source

Binder | EC50 human [pM]
B1 | 100
B2 | 27
B3 | 0.32
B4 | 39
B5 | 59
B6 | 130
B7 | 200

molecular target: T2, mouse GLP-1 receptor; assay: cell-based or functional assay; remark: another data set of the same source

Binder | EC50 mouse [nM]
B1 | 0.84
B2 | 0.12
B3 | 4
B4 | 0.9
B5 | 0.9
B6 | 0.84
B7 | 1.6

molecular target: T1, human GLP-1 receptor; assay: 125I-GLP-1 displacement, membranes of CHOK1 cells expressing human GLP-1 receptor; remark: another data set of the same source
Protocol: as §1
Ligand Binding Assay. Binding assays were performed in 96-well U-bottom plates. […] The reaction was terminated by rapid filtration through Unfilter-96 GF/C glass fiber filter plates (FilterMate 196 Packard Harvester, PerkinElmer, Shelton, Conn.) pre-soaked in 0.5% polyethylenimine, followed by three washes with 300 μl of cold 50 mM Tris-HCl, pH 7.4. Bound radioactivity was determined using a TopCount microplate scintillation and luminescence counter (Packard Instrument Company, PerkinElmer, Shelton, Conn.). Nonlinear regression analyses of resulting concentration curves were performed using GraphPad Prism (GraphPad Software, Inc., San Diego, Calif.).

Binder | IC50 [nM]
B9 | 350
B10 | 64
B11 | 50
B12 | 57
B13 | 350
B14 | 180
B15 | 160
B16 | 95
B17 | 100
B18 | 79
B19 | 590
B20 | 75
B21 | 82
B22 | 760
B23 | 38
B24 | 32
B25 | 53
B26 | 38
B27 | 80
B28 | 53
